Assay results published in the nanobody polyreactivity screen of Harvey et al. (2022).

Assay: yeast display, Sf9 membrane polyspecificity reagent, FACS + sequencing; frameworks hold sequencing errors
How it was run: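 A nanobody's polyreactivity label depends on the gate it was sorted from. Yeast display cells were stained with 10% biotinylated, detergent-solubilized Sf9 membrane reagent for 1 hour at 4 °C, enriched on streptavidin microbeads and sorted by FACS. The low and high (top ~1%) gates were set on anti-HA fluorescence for expression and streptavidin fluorescence for reagent binding.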

| Sequence | polyreactivity (PSR sort gate) |
| --- | --- |
| QVQLVDSGGGLVQAGGSLRLSCAASGFIFPYYAMGWYRQAPGKERELVAAITRGGRTYYADSVKGRFTISRDNAKNTVYLQMNSLKPEDTAVYYCAARAGLDGEMDYWGQGTQVTVSS | high polyreactivity |
| QVQLVESGGGLVQAGGSLRLSCAASGFTFQTYAMGWYRQEPGKERELVATIRTRGGSTSYADSVKGRFTISRDNAKNTVYLQMNSLKPEDTAVYYCNGRLSYRSAWYYGGDRYDYWGQGTQVTVSS | high polyreactivity |
| QVQLVESGGGLVQAGGSLRLSCAASGLIVVHYAMGWYSQAPGKVREFVAAITWSGGSTYYADSVKGRFTISRDNAKNTVYLQMNSLKPEDTAVYYCAVDGFRPGTASFGYWGQGTQVTVSS | low polyreactivity |
| QVQLVESGGGLVQAGGSLRLSCAASGITFGYNTMGWYRQAPGKERELVAAISGSGGRTYYADSVKGRFTISRDNAKNTVFLQMNSLKPEDTAVYYCAARWPIWSSLYDYWGQGTQVTVSS | high polyreactivity |
| QVQLEESGGGLVQAGGSLRLICADSGFTFVYYARGWYRQAPGKERELVATISGNGGRTYYADSVKGRFTISRDNAKNTVYLQMNSLKPEDTAVYYCNADDPYLYYDSYDYWGQGTQVTVSS | low polyreactivity |
| QVQLVESGGGLVQAGGSLRLSCAASGITFYYNAMGWYRQAPGKERELVAAISDGSSTNYADSVKGRFTISRDNAKNTVYLQMNSLKPEDTAVYYCNASWSFPVSGYESRSPGKLDYWGQGTQVTVYS | low polyreactivity |
| QVQLVESGGGLVQAGGSLRLSCAASGSIFATYAMGWYRQAPGKERELVAAITASDGSTNYADSVKGRFTLSRDNAQNTVYLQMNSLKPEDTAVYYCATDAPYRTDSDSGFDAGYDYWGQGTQVTLSS | low polyreactivity |
| QVQLVESGGGLVQGGGSLRLSCAASGFIFDDNSMGWYRQAPGKERELVAAITSGGGSTYYADSVKGRFTISRDNAKNTVYLQMNSLKPEDTAVYYCNAVPSQHDEFDYWGQGTQVTVSS | low polyreactivity |
| QVQLVESGGGLVQAGGSLRLSCAASGRTLYGYAMGWYRQAPGKERELVAAISKRGTRTYHADSVKGRFTISRDNAKNTVYLQMNSLKPEDTAVYFCGARYPPDEATMEYWGQGTQVTVSS | high polyreactivity |
| QVQLVESGGGLVQAGGSLRLSCAASGSIFFYAMGWYRPAPGKERELVAAISWRGGSTYYADSVKGRFTISRDNAKNTVYLQMNSLKPEDTAVYYCAKATRRYDVYTYGYWGQGTQVTVSS | high polyreactivity |
| QDQLVESGGGLLQAGGSLRLICAASGYTLQGYAMGSSRQATGKERELVAAISSNGGSTYYADSVKGRFTISRDNAKNTVYLEMNSLKPEDTAVYYCNAQYIVYYRYARITKYDYWGQGTQVTVSS | high polyreactivity |
| QVQLVESGGGLVQAGGSLRLSCAASGSTFRQYAMGWYRQEPGKERELVAAITWRGDNTYYADSVKGRFTISRDNAKNTVYLQMNSLKPEDTAVYYCAAEYTVYVTDWYDYYYWGQGTQVTVSS | low polyreactivity |
| QVQLVESGGGLVQAGGSLRLSCAASGIIYSINAMGWYRQAPGKERELVAAISRSGGSTNYADSVKGRFTISRDNAKNTVYLQMNSLKPEDSAVYYCATVHRYSVWSHNYWGQGTQVTVSS | high polyreactivity |
| QVQLVESGGGLVQAGGSLRLSCAASGIIFSWYDMGWYRQAPGKERELVAAISYRGSTNYADSVKGRFTISLDNAKNTVYLQMNSLKPEDTAVYYCNGPRRQYEYDYWGQGTQVTVSS | high polyreactivity |
| QVQLVESGGGLVQAGGSLRLSCAASGRIFWSYGMGWYRQAPGKERELVAAITNTGDGTYYADSVKGRFTISRDNAKNTVYLQMNSLKPEDTAVYYCAVDYRGYWYWEYDYWGQGTQVTVSS | high polyreactivity |
| QVQLVESGGGLVQAGGSLRISCAASGFIFTSKAMGWHRQAPGKERELVAAITKSGGSTYYADSVKGRFTISRDNAKNTVYLQMNSLKPEDTAVYYCAAYPTSRYKYEYWGQGTQVTVSS | high polyreactivity |
| QVQLVESGGGLVQAGGSLRLSCAASGSTFSVNAMGWYRQAPGKEREFVAAITGDGVTTYYADSVKGRFTISRDNAKNTVYLQMNSLKPEDTAVYYCAAEDIRQTTGYDYWGQGTQVTVSS | high polyreactivity |
| QVQLVESGGGLVQAGGSLRLSCAASGSIIYFNAMGWYRQAPGKERELVAAITRSGGSTYYADSVKGRFTISRDNAKNTVYLQMNSLKPEDTAVYYCAAEVWRTYSVEYDYWGQGTQVTVSS | high polyreactivity |
| QVQLVESGGGLVQAGGSLRLSCAASGSTFLVNAMGWYRQAPGKERELVAAITQSGGSTFYADSVKGRFTISRDNEKNTVYLQMNSLKPEDTAVYYWGQGTQVSVSS | low polyreactivity |
| QVQLVEAGGGLVQAGGSLRLSCAASGLIFWAYAMGWYRQAPGKERELVAAINWRGGSTYYADSVKGRFTISRDNAKNTVDLQMNSLKPEDTAVYYCADDSYYDEYDYLGQGTQVTVSS | low polyreactivity |
| QVQLVESGGGLVQAGGSLRISCAASGSTFDRNAMGWYRQPPGKERELVAAISSSGGRTYYADSVKGRFTISRDNAKNTVYLQMNSLKPEDTPVYYCAAAFSLGMYWGKGTQVTVSS | high polyreactivity |
| QVQLVESGGGLVQAGGSLRLICAASGRTFPGYAMGWYRPAPGKDRELVAAISNSGGRTYYADSVKGRFTISRDNAKKTVYLQMTSLKREDTAVYYCNATTDNGSNKRYYYWGQGTQVTVSS | high polyreactivity |

| Sequence | polyreactivity (PSR sort gate) |
| --- | --- |
| QVQLVESGGGLVQAGGSHRLSCAASGRTFANYAMGWYRQAPGKERELVAAITSGGRTYYADSVKGRFTISRDNAKNTVYLQMNSLKPEDSAVYYCAADYTYDYQNDYWGQGTQVTVSS | high polyreactivity |
| QVQLVESGGGLVQSGGSLRLTCAASGFTFYDYDMGWYRQAPGKERELVATITWSVGRTYYADSVKGRFTISRDTAKNTVYLQMNSLKPEDTAVYYCAADEPDRDYGYWGQGTQVTVSS | low polyreactivity |
| QVQLVESGGGLVQAGGSLRLSCAASGRIFPKYAMGWYRQAPGKERELVARISVRGGRTYYADSVKGRFTISRDNAKNTVYLQMNSLKPEDTAVYYCAAYTRPAYDYWGQGTQVTVSS | high polyreactivity |
| QVQLVESGGGLVQAGGSLRLSSAASGFIFTYYAMGWYRQAPGKERELVAVITRGDSTYYADSVKGRFTISRDNAKNTVYLQMNSLKPEDTAVYYCAARGYFGWSGYSVPSTAYGYWGQGTQVTVSS | high polyreactivity |
| QVQLVESGGGLVQAGGSLRLSCADSGIIFITNAMGWYRQAPGKERELVAAISSTVSTNYADSVKGRFTISRDNAKNTVYLQMNSLIQEDTAVYFCAAEWGLTQGESIYDFWGQGTQVTVSS | low polyreactivity |
| QVQLVESGGGLVQAGGSLRLSCAASGSTFYKYAMGWYRQAPGKERELVARISRGGGSTYYADSVKGRFTISRDNAKNTVYLQMNSLKPEDTAVYYCAAGVRGQNDGYYWGQGTEVTVSS | high polyreactivity |
| QVQLVESGGGLVQAGGSLRLSCAASGRIFHYYAMGWYRQAPGKERELVAAISWSGGSTYYADSVKGRFTISRDNAKNTVYLQMNSLKPEETAVYYCAARYVKTKGSFVVGYGYWGQGTQVTLSS | high polyreactivity |
| QVLLVESGGGLVQAGGSLRLSCAASGSIFIANAKGWYRQAPGKERELGAAIDSGGSTNYADSVKGRFTISRDNAKYTVYLQMNSLKPEDTAVYYCAADGTLTAPGGDYWGQGTQVTVSS | high polyreactivity |
| QVQLEESGGGLVQAGGSLRLSCAASGRTLKVYAMGWYRTAPGKERELVAAINNGGSTNYADSVKGRFTISRDNAKNTVFLQMNSLKPEDTAVYYFNAVYYARFRKYTYYYWGQGTQVTVSS | high polyreactivity |
| QVQLVESGGGLVQAGGSLRLSCAASGLTFHYYAMGWYRQAPGKERELVAAITATYYADSVKGRFTISRDNAKNTVYLQMNSLKPEDTAVYYCNAFLYPKQPLSPPDPTFEGGYWGQGTQVTVSS | low polyreactivity |
| QVQHVESGGGLVQAGASLRLSCAASGLTFYRYALGWYRQARGNERELVAAITSGTRTYYADSVKGRFTISRDNAKNTVYLQMYSLKPEDTAVYYCAASWQTRTYQSRYYYWGQGTQVTVSS | high polyreactivity |
| QVQLVESGGGLVQAGGSLRLSCAASGINLAGYVMGGYRQAPGKERDLVADISSSGDSTYYADSVKGRFTISRDNAKNTVYLQMNSLLPEDTAVYYCAAEEIIPLIYKGYPFDYWGQGSQVTVSS | low polyreactivity |
| QVQLVESGRGLVQAGGSLRLSCAASGRIFGVYAMGWDRQAPGKERELVAAISGSTTRTYYADSVKGRFTISRDTAKNTVYLQMNSLKPEDTAVYYCAARSYTPSYKMDYWGQGTQVTVSS | high polyreactivity |
| QVQLVESGGGLVQAGGSLRLSCAASGSTFVRYAMGWYRQAPGKERELVAAISGGGSTSYADSVKGRFTISRDNAKNTVYLQMNSLKPEDTAVYYCAAEKYRWENDAYQYYTFDYWGQGTQVTVSS | low polyreactivity |
| QVQLVESGGGLVQAGGSLRLSCAASGIIFGHYDMGWYRQAPGKERELVAAITFTGDSTYYADSVKGRFTISRDNAKNTVYLQMNSLKPEDTAVYYCAAETPVPWGSWGYDYWGQGTQVTVSS | low polyreactivity |
| QVQLVESGGGLGQAGGSLRLSCAASGFIFGPYAMGWYRQARGKETELVAAISSSGGSTSYADSVKGRFTISRDNAKNTVYLQMNSLKPEDTAVYYCAARGRYRFYSNNYDYWGQGTQVTVSS | high polyreactivity |
| QVQLVESGGGLVQAGGSLRLSCAASGRIFVRYTMGWYRQAPGKERELVAAITKRGGSTYYADSVKGRFTISRDNAKNTVYLQMNSLKPEDTAVYYCATDGLGYNRPQDEYWGQGTQVTVSS | high polyreactivity |
| QDQIVYSGGGLVQAGGSLRLSCAASVRTFYRYDLGWYIQAPGKESELVAAISYSGASTYYADSVKGRFTISRDIAKNTVYLQMNSLKPEDTAVYYCAARYHGRDPRQIRYGYWGQGTQVTVSS | high polyreactivity |
| QVQLVESGGGLVQAGGSLRLSCAASARIFYAYTMGWYRQAPGKERELVAAISGSGSTYYADSVKGRFTISRDNAMNTFFLQMNSLKPEDTAVYYCAADVTGGRKYDYWGQGTEVTVSS | low polyreactivity |
| QVQLVESGGRVVQAGGILRLRCAGSGSILVHYAMGWYRQAPGKDRELVAAISRGGSTNYADSVKGRFTISRDNAKNTVYLQMNSLKPEDTAVYYCDARRPWGEYYWGQGTQVTVSS | low polyreactivity |
| QVQLVESGGGLVQAGGSLRLSCAASGSIFSFNAMGWYRQAPGKERELVAVITRNGGSTYYADSVKGRFTISRDNAKNTVYLQKNSLKPEDTAVYYCAKRLYRHIMGYWGQGTQVTVSS | high polyreactivity |
